2 molecules from patent US20210355229A1 (JIANGSU HENGRUI MEDICINE, published 2021) can be followed below.

The target of experiment [1] is T1, human OX40 on Jurkat-NF-Kb luc-hOX40 cells (human, UniProt P43489 29-277).
T1 sequence (looked up): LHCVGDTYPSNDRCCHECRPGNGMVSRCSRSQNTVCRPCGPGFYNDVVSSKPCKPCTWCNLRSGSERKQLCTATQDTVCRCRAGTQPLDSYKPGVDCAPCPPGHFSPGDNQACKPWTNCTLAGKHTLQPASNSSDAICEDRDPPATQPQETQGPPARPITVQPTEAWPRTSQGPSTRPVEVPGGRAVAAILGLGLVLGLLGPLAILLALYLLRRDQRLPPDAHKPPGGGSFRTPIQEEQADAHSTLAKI
The experiment is described as follows: cell-based or functional assay.

The target in experiment [2] is T2, human OX40-FC-biotin (human OX40 recombinant protein with Fc tag, Acro Biosystems OX40-H5255, labeled with … (human, UniProt P43489 29-216, labeled with biotin (site not stated))).
T2 construct: range 29-216; Bought (Acro Biosystems OX40-H5255; printed once as OXO-H5255), expressed in HEK293; also called human Bio-OX40-FC; not shown: Fc tag of the bought protein
T2 sequence (looked up): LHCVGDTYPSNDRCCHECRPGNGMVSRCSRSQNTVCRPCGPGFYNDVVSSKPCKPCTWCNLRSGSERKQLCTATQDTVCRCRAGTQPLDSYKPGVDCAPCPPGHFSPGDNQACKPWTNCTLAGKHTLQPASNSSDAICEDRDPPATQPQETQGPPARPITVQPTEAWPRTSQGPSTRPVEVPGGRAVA
Kind of experiment: blocking ELISA: OX40L coated, biotin-OX40-Fc pre-incubated with antibody, SA-HRP. On the procedure: The well-plate was coated with the OX40 ligand (Acrobiosystem, OXL-H52Q8), blocked, added the gradient-diluted antibody to be tested (the antibody was diluted in a solution comprising human Bio-OX40-FC (Acrobiosystem, OX40-H5255, labeled with biotin), pre-incubated for 40 minutes, and then added into the plate), incubated for 40 minute, and washed. SA-HRP (Jackson Immunoresearch, 016-030-084) was then added and incubated for 40min. The developing solution and stop solution were added, and the OD value was measured.

Experiment [3] has as its target T3, human OX40-His protein (sinobiological # 10481-H08H) (human, UniProt P43489 29-216).
T3 construct: Bought; analyte in Biacore; not shown: His tag
T3 sequence (looked up): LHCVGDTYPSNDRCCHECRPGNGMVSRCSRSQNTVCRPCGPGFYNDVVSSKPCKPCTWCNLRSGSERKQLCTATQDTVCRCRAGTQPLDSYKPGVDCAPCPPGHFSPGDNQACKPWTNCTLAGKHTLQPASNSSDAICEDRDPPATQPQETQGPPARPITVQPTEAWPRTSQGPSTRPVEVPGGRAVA
The experiment is described as follows: SPR (Biacore T200), antibody coupled to CM5 chip, OX40-His as analyte, 1:1 model. How it is done: Using the kit provided by Biacore, the recombinant anti-OX40 antibody to be tested of the present invention was covalently connected to the CM5 (GE) chip by NHS standard amino coupling method. A series of concentration gradients of human OX40-His protein (sinobiological # 10481-H08H) diluted in the same buffer were then loaded into each cycle at a flow rate of 30 μL/min. After loading, the chip was regenerated using regeneration reagent provided in the kit. The antigen-antibody binding kinetics was traced for 3 minutes, and the dissociation kinetics was traced for 10 minutes. The resulting data were analyzed by using BIAevaluation software (GE) with 1:1 (Langmuir) binding model.

For experiment [4], the target named is T2, human OX40-FC-biotin (human OX40 …). Kind of experiment: capture ELISA, biotin-OX40-Fc. How it is done:
20xPBS buffer was diluted to 1 xwith deionized water. […] 100 μL of the diluted primary antibody was added to each well (the antibody to be tested was 5-fold diluted from the concentration of 10000 ng/ml, resulting in seven gradients, namely 10000 ng/ml, 2000 ng/ml, 400 ng/ml, 80 ng/ml, 16 ng/ml, 3.2 ng/ml, and 0.64 ng/ml, blank wells merely contained dilution solution, i.e., 2.5% skimmed milk in PBST), and incubated at 37° C. for 40 minutes. The plate was washed for 4 times with PBST, human OX40-FC-biotin (Acro biosystem, OXO-H5255, labeled biotin) was diluted with 2.5% skimmed milk in PBST, 100 μl was added to each well, incubated at 37° C. for 40 min, and the plate was washed for 4 times with PB ST. 100 μL TMB developing solution was added to each well, incubated for 3-15 minutes in dark at room temperature, 50 μl stop solution (1M sulfuric acid) was added to each well. The parameters were set for the microplate reader, the OD value was read at 450-630nm, and the test data were saved.

A word on the IC50: it is the concentration at which inhibition is half-maximal. In general, Kd refers to the concentration at which binding is half-saturated. Low readings indicate a tighter complex, high ones a looser complex. Usually koff stands for the first-order rate constant of dissociation. A high value points to fast dissociation. In general, kon refers to the second-order rate constant of association. A higher kon goes with fast association. A word on the EC50: it is the concentration that produces a half-maximal response.

B1: humanized antibody 2G3 (antibody, human IgG1, kappa, V domains shown)
VH: QVQLQESGPGLVKPSETLSLTCTVSGYSISRYSVHWVRQPPGKGLEWIGMIWDGGNTDYNAALKSRFTISRDNAKNTLYLQMNSLRAEDTAVYYCARNPLYFSYAMDYWGQGTLVTVSS
VL: DIQMTQSPSSLSASVGDRVTITCRASQDISNYLNWYQQKPDQSPKLLIIYTSRLQSGVPSRFSGSGSGTDYTLTISSLQPEDFATYYCQQVNTFPFTFGQGTKLEIKR
notes: also called 2G3 (hu2G3 VH1.1 + hu2G3 VL1)
In the case of B1, in experiment [1], the “EC50 (nM), activation of reporter gene (luciferase, Jurkat-NF-Kb luc-hOX40 cells with Raji cells, anti-CD3 coated)” value worked out at 2.29 nM. In addition, the IC50 in experiment [2] is 1.88 nM. In experiment [3], this molecule displayed a Kd of 4.63 nM, a koff of 0.00202 s⁻¹ and a kon of 437000 M⁻¹ s⁻¹.

B2: humanized antibody hu4B5-V7 (antibody, human IgG1, kappa, V domains shown)
VH: QVQLKESGPGLVKPSETLSLTCTVSGFSLTSYGLHWFRQPPGKGLEWIGVIWSGGSTDYNAAFISRVTISKEDSKSQVSLKLSSVTAADTAVYYCAREEYDVWGQGTTVTVSS
VL: DIQMTQSPSSLSASVGDRVTITCRASQDISNYLNWYQQKPGGVPKLLIYYTSRLHSGVPSRFSGSGSGTDYTLTISSLQPEDVATYYCQQGNTLPWTFGGGTKVEIKR
With B2, the “EC50 (nM), activation of reporter gene (luciferase, Jurkat-NF-Kb luc-hOX40 cells with Raji cells, anti-CD3 coated)” value in experiment [1] was 0.341 nM. For the same molecule, the EC50 in experiment [4] was determined as 0.254 mg/L. In addition, in experiment [2], the half-inhibitory concentration (IC50) turned out to be 0.725 nM. In experiment [3], this molecule yielded a Kd of 2.81 nM, a koff of 0.000369 s⁻¹ and a kon of 131000 M⁻¹ s⁻¹.
